# Laboratory results from US20190389961A1 (INNATE PHARMA, published 2019).
# Where a chain is given by its changes, count along the chain named. Numbers in names are those of the source.
# T1: human CD39 (vascular CD39, NTPDase1) expressed at the surface of cells (human, UniProt P49961 1-510)
# T1 construct: also called huCD39; CHO-huCD39
# T1 sequence: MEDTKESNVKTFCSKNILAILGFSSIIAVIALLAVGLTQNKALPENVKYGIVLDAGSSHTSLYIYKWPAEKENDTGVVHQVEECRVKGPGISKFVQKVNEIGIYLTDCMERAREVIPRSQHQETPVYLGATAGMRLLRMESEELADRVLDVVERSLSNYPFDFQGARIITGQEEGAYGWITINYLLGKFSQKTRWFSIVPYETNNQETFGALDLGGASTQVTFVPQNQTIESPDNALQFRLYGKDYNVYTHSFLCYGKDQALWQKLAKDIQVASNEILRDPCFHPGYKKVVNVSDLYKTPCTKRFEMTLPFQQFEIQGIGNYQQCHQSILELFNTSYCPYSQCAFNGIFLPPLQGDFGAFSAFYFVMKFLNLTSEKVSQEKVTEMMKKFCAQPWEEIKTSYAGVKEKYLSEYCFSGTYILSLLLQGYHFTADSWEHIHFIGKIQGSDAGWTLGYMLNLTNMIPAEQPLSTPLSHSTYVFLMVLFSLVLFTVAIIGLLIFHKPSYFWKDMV
# T2: human CD39 mutant 5 (human, UniProt P49961 1-510)
# T2 construct: Expressed on Hek-293T cells; also called M5
# T2 chain: T1 sequence with Q96A, N99A, E143A, R147E
# T3: cynomolgus (Macaca fascicularis) CD39 expressed on CHO cells (cynomolgus (Macaca fascicularis), UniProt A0A7N9DGH8 1-510)
# T3 construct: whole, on cells; also called CHO-cyCD39; cyCD39
# T3 sequence: T1 sequence with V47I, F94Y, V221I, I230T, I329V, K368N, A391S, F489V, T490I
# T4: human CD39 mutant 15 (human, UniProt P49961 1-510)
# T4 construct: Expressed on Hek-293T cells; also called M15
# T4 chain: T1 sequence with K87A, E100A, D107A
# B1: antibody I-394 (antibody, V domains shown)
# VH: EVQLQQSGPELVKPGASVKMSCKASGYTFTDYNMHWVKQSHGRTLEWIGYIVPLNGGSTFNQKFKGRATLTVNTSSRTAYMELRSLTSEDSAAYYCARGGTRFAYWGQGTLVTVSA
# VL: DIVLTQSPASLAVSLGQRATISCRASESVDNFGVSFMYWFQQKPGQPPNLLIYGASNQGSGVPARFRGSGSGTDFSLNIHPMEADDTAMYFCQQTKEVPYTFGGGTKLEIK
# notes: Mouse variable regions; Produced in CHO with human IgG1 constant domains carrying L234A/L235E/G237A/A330S/P331S (Kabat EU numbering) and a human Ck constant domain
# Key:
# [1] = molecular target: T1, human CD39 (vascular CD39, NTPDase1) …; assay: flow cytometry on Hek-293T cells expressing wild-type CD39 (panel WT); unstained (US) median 10,3; antibody concentration not shown
# Procedure: (§1) Mutants were transfected in Hek-293T cells, as shown in the table 1, using numbering of SEQ ID NO: 1. […] Mutant 19 includes substitutions at residues R138, M139 and E142.
# (§2) In order to define the epitopes of the further anti-CD39 antibodies of Example 5, they were tested for loss of binding to the panel of CD39 mutants as described in Example 1 and Table 1. Mutants were transfected in Hek-293T cells, as shown in the table 1, using numbering of SEQ ID NO: 1.Dose-ranges of test antibodies (10-2.5-0.625-0.1563-0.0391-0.0098-0.0024-0.0006 μg/ml) are tested on the 20 generated mutants by flow cytometry.
# [2] = molecular target: T2, human CD39 mutant 5; assay: flow cytometry on Hek-293T cells expressing CD39 mutant 5 (panel M5); unstained (US) median 8,98; antibody concentration not shown
# Procedure: as §1, §2
# [3] = molecular target: T3, cynomolgus (Macaca fascicularis) CD39 …; assay: flow cytometry titration on CHO-cyCD39 cells
# Procedure: (§3) Cells were incubated with various concentration of unlabeled anti-CD39 antibody from 30 μg/ml to 5×10-⁴ μg/ml, for 30 minutes at 4° C. After washes, cells were incubated with Goat anti-mouse H+L labeled secondary antibody for 30 min at 4° C.
# [4] = molecular target: T4, human CD39 mutant 15; assay: flow cytometry on Hek-293T cells expressing CD39 mutant 15 (panel M15); unstained (US) median 8,98; antibody concentration not shown
# Procedure: as §1, §2
# [5] = molecular target: T1, human CD39 (vascular CD39, NTPDase1) …; assay: flow cytometry titration on CHO-huCD39 cells
# Procedure: as §3
binder,measurement,setting,value
B1,Median : Comp-Alexa Fluor 647-A,[1],3720
same,Median : Comp-Alexa Fluor 647-A,[2],1470
same,EC50 (read off the curve),[3],~0.4 µg/mL
same,Median : Comp-Alexa Fluor 647-A,[4],6360
same,EC50 (read off the curve),[5],~0.2 µg/mL
